Measured values as given in patent US20250042956A1 (University of California, published 2025).

T1: AT1G49950.3 TRB1 (Arabidopsis thaliana, UniProt Q8VWK4 1-300, limits assumed)
T1 construct: Endogenous protein found by mass spectrometry
T1 sequence: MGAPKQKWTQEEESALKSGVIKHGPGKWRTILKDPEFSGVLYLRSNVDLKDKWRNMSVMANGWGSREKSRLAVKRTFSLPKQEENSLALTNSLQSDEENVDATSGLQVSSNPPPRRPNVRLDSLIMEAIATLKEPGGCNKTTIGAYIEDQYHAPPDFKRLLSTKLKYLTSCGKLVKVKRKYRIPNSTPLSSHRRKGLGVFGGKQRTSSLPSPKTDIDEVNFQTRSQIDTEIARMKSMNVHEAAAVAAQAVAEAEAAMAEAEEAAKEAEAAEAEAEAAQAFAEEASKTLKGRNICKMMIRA

T2: AT3G10480.3 NAC050 (Arabidopsis thaliana, UniProt Q9SQX9 1-447, limits assumed)
T2 construct: Endogenous protein found by mass spectrometry
T2 sequence (looked up): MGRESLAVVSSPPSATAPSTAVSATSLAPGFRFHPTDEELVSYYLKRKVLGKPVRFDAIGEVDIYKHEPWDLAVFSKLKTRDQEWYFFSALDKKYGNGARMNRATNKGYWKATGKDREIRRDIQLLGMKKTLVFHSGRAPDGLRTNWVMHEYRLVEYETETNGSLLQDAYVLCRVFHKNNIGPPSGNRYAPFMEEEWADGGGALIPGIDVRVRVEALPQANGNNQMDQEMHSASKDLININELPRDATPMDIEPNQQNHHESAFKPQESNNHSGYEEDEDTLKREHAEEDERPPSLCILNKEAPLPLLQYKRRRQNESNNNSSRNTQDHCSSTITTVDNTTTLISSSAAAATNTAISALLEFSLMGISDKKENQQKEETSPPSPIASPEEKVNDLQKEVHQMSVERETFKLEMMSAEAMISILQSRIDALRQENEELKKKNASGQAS

T3: AT5G67580.1 TRB2 (Arabidopsis thaliana, UniProt Q9FJW5 1-299)
T3 construct: Endogenous protein found by mass spectrometry
T3 sequence: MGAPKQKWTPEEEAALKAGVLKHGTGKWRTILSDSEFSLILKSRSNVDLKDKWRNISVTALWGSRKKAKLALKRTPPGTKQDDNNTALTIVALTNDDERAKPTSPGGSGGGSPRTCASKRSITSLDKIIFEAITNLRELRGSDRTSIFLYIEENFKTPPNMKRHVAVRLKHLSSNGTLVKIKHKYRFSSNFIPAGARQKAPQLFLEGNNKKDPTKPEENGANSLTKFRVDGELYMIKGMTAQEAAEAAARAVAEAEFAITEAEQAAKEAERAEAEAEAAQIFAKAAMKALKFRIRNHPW

T4: AT2G17540.2 TRBIP2 (Arabidopsis thaliana)
T4 construct: Endogenous protein found by mass spectrometry
T4 chain: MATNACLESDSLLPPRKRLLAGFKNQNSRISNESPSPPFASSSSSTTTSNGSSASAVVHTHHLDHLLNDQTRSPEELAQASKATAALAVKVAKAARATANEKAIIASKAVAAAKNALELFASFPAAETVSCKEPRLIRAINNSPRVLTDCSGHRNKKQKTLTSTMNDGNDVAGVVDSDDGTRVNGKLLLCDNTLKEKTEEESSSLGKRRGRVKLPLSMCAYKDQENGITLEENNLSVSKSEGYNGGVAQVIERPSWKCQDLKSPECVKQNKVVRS

T5: AT3G49850.1 TRB3 (Arabidopsis thaliana, UniProt Q9M2X3 1-295)
T5 construct: Endogenous protein found by mass spectrometry
T5 sequence: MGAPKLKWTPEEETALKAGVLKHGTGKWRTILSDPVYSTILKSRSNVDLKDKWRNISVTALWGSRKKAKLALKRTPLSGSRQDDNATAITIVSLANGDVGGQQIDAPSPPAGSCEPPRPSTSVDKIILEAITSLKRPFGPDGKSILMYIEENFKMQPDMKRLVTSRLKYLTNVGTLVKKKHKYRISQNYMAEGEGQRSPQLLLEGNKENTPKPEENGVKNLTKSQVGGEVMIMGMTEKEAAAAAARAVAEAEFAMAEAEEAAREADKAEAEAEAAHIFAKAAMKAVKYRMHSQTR

T6: PIAL2-Myc (Arabidopsis thaliana, UniProt F4JYG0 1-760)
T6 construct: not shown: C-terminal 9XMYC tag and BLRP (pEG302 vector)
T6 sequence: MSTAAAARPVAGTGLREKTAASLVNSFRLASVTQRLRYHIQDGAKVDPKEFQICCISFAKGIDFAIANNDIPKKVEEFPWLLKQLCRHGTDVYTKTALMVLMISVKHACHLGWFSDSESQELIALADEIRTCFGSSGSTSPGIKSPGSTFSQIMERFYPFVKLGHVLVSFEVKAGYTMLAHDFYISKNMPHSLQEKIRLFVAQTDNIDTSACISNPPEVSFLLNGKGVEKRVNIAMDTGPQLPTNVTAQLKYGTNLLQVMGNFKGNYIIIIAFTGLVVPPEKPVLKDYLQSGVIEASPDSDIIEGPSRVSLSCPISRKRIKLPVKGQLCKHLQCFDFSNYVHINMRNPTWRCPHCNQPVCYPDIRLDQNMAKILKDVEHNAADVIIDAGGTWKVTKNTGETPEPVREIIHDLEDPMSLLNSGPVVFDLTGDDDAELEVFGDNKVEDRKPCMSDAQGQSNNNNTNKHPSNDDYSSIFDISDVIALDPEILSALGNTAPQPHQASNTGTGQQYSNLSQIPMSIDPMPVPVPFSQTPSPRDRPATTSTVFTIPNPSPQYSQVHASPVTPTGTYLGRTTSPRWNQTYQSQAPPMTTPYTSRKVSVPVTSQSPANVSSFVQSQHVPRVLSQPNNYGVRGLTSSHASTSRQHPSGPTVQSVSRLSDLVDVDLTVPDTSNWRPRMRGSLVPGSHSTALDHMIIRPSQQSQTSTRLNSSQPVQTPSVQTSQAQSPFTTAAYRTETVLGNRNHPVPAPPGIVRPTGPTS

B1: TRBIP1 (bait of the TRBIP1 IP-MS) (other, not shown: small tags and cut ends)
chain: METNPCDMNQLDSDSHLPPRKRLLAGFKKFNSNGINGSSPSDFASSSSTSNSNGSSSASTNVQTHLGNLLSSPFNNDQSPEELVEATRSAAALAVKAAKAARAIANEKALISAKAIAAAKRALELVDSFPKEAMADCKERSPRKNKQKKHVPVELLYSKGQLRDEEDDLARRLHRAIDNTSYPRVLRTSEENGQRYKKQKKNKSVVEGGSSSIIVTGSMKDIAGVVDSDSSYEGLEIARSNRDEADSMLMMEKSGEESNSLVKRRGRVKLKKLPLSICNSRNQENGTSSASPLPVAQPQEDGGAITVIAGSSSWKCQDIKAPECVKQNKAVRS
notes: tag and its position not described; also called TRBIP1-1; TRBIP1-2
B2: MORC6-FLAG (other, Arabidopsis thaliana, UniProt Q56Y74 1-663, looked up)
chain: MSHDRSVNVSHDAVIAKPERGTMLQSFSPRSHGSKGYSLPQDSEENRGSVGQSAGQSSTSVVDQVRSPADDAGVTSSSTICPAPVCRQFWKAGSYNDELSSKSQQPNGKNYLHVHPMFLHSNATSHKWAFGAVAELLDNAVDEIQNGATFVIVDKTTNPRDGATALLIQDDGGGMDPQAMRHCMGFGFSDKKSDSAIGRYGNGFKTSTMRLGADVIVFSRHSKNQTLTQSIGLLSYTYLTRTGHDRIVVPILDYEFNASAGEFKTLQDREHFISSLSILLEWSPFSTEAELLQQFDDVGPHGTKVIIYNMWLNSDAKLELDFDSVAEDILIEGSIKKTGSKIVNDHIASRFSYSLRVYLSILYLRIPETFKIILRGKVVEHHNVADDLMHPQYILYKPQAAGSEEALVVTTIGFLKEAPKVNLHGFCVYHKNRLIMPFWQVINYSSSRGRGVVGVLEANFVEPTHNKQDFEKTVLLQKLENRLKEMTVEYWSCHCVLIGYQVNKKPRLQIPQKVQPAGRQALSPPPGFQAVFPQGNTTSLPRVSTQPVLLEKRKEHPDSVASAALKRKVGNDDFTVPGHIRVEQFIHGSASQSQDIETVKLMEENKKLRAKCLDRKVRSQNLEVKAMNLRSELENYKSEYERLMVELQALDLVKDEHRRNVNT
notes: not shown: FLAG tag (3xFLAG-BLRP vector described)

Experiments:
AT1G49950.3 TRB1 [1] = target: T1, AT1G49950.3 TRB1; experiment: IP-MS rep 2
Method in brief: (§1)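 Unopened floral buds (ten grams) from wild-type and FLAG-tagged transgenic Arabidopsis lines were ground in liquid nitrogen, homogenised in 25 mL IP buffer and passed through Miracloth. The lysates were mixed with 250 μL anti-FLAG M2 magnetic beads for 2 hours at 4° C, then washed and eluted in TBS containing 250 μg/mL 3×FLAG peptides. Peptide counts for co-purified proteins were obtained by mass spectrometry of the eluted proteins after trichloroacetic acid precipitation.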

AT3G10480.3 NAC050 [2] = target: T2, AT3G10480.3 NAC050; experiment: IP-MS rep 2
Method in brief: as §1

AT5G67580.1 TRB2 [3] = target: T3, AT5G67580.1 TRB2; experiment: IP-MS rep 2
Method in brief: as §1

AT2G17540.2 TRBIP2 [4] = target: T4, AT2G17540.2 TRBIP2; experiment: IP-MS rep 2
Method in brief: as §1

AT5G08450.1 HDC1 [5] = target: T7, AT5G08450.1 HDC1 (Arabidopsis thaliana); experiment: IP-MS rep 2
T7 construct: Endogenous protein found by mass spectrometry
Method in brief: as §1

AT3G49850.1 TRB3 [6] = target: T5, AT3G49850.1 TRB3; experiment: IP-MS rep 2
Method in brief: as §1

AT1G49950.3 TRB1 [7] = target: T1, AT1G49950.3 TRB1; experiment: IP-MS rep 1
Method in brief: as §1

AT3G10480.3 NAC050 [8] = target: T2, AT3G10480.3 NAC050; experiment: IP-MS rep 1
Method in brief: as §1

AT5G67580.1 TRB2 [9] = target: T3, AT5G67580.1 TRB2; experiment: IP-MS rep 1
Method in brief: as §1

AT2G17540.2 TRBIP2 [10] = target: T4, AT2G17540.2 TRBIP2; experiment: IP-MS rep 1
Method in brief: as §1

AT5G08450.1 HDC1 [11] = target: T7, AT5G08450.1 HDC1; experiment: IP-MS rep 1
Method in brief: as §1

AT3G49850.1 TRB3 [12] = target: T5, AT3G49850.1 TRB3; experiment: IP-MS rep 1
Method in brief: as §1

PIAL2-Myc = target: T6, PIAL2-Myc; experiment: co-IP, anti-FLAG, crossed lines
Experimental: The Co-IP assays in this study were performed by following previous protocol (see e.g., Wang, Science, 2016) with some modifications. 2 grams of 2-week-old seedling tissue were collected from Arabidopsis transgenic lines: JMJ14-FLAG×TRB1-Myc and TRB1-Myc; MORC6-FLAG×PIAL2-Myc and PIAL2-Myc. The samples were ground into fine powder with liquid nitrogen, resuspended with 10 mL IP buffer, and incubate 20 minutes at 4° C. The lysate was centrifuged and filtered through Miracloth for two times, and the supernatant was incubated with 30 μL anti-FLAG M2 Affinity Gel (Millipore) for 2 hours at 4° C. The anti-FLAG beads were washed with IP buffer for a total of 5 times, and the protein was eluted with 40 μL elution buffer (IP buffer containing 100 μg/mL 3×FLAG peptide as final concentration). The supernatant was mixed with 5×SDS loading buffer and subject to Western blot.

| Binder | IP-MS count (AT1G49950.3 TRB1 [1]) | IP-MS count (AT3G10480.3 NAC050 [2]) | IP-MS count (AT5G67580.1 TRB2 [3]) | IP-MS count (AT2G17540.2 TRBIP2 [4]) | IP-MS count (AT5G08450.1 HDC1 [5]) | IP-MS count (AT3G49850.1 TRB3 [6]) | IP-MS count (AT1G49950.3 TRB1 [7]) | IP-MS count (AT3G10480.3 NAC050 [8]) | IP-MS count (AT5G67580.1 TRB2 [9]) | IP-MS count (AT2G17540.2 TRBIP2 [10]) | IP-MS count (AT5G08450.1 HDC1 [11]) | IP-MS count (AT3G49850.1 TRB3 [12]) | binding result (PIAL2-Myc) |
| --- | --- | --- | --- | --- | --- | --- | --- | --- | --- | --- | --- | --- | --- |
| B1 | 15 | 0 | 36 | 0 | 2 | 19 | 39 | 2 | 66 | 0 | 8 | 31 | – |
| B2 | – | – | – | – | – | – | – | – | – | – | – | – | binds |
